In paper doi:10.1101/2025.11.04.686606 one finds stoichiometry N data, which are given here for one substance.

The experiment deals with PcoAA14A_dCTR, disordered C-terminal region alone of PcoAA14A (Pycnoporus coccineus). In words: SEC-MALLS.

Turning to “PcoAA14A_dCTR, disordered C-terminal region alone of PcoAA14A (domain or fragment)”, the stoichiometry N (usually the number of molecules, sites or subunits per partner or assembly) is 2.
